# Reference: article PMC5928113, “Properties of the ternary complex formed by yeast eIF4E, p20 and mRNA” (Scientific Reports, 2018)
# T1: eIF4E (His6x-eIF4E) (Saccharomyces cerevisiae, UniProt P07260)
# T1 construct: gene CDC33; recombinant, N-terminal His6x tag kept, codon-optimized gene in pET3a, E. coli BL21 Rosetta 2 (DE3)
# T1 sequence (P07260 1-213): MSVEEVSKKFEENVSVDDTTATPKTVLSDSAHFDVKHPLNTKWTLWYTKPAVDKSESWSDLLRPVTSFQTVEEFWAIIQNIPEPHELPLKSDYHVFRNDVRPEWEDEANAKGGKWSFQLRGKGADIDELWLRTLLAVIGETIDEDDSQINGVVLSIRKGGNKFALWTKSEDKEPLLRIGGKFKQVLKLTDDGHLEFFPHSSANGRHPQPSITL
# T2: eIF4E/p20 complex (eIF4E/His6x-p20) (Saccharomyces cerevisiae, UniProt P07260)
# T2 construct: gene CDC33; recombinant complex, untagged eIF4E (pET28a) co-expressed with His6x-p20 (pET3a, tag kept) in E. coli BL21 Rosetta 2 (DE3); with Cap-associated protein CAF20
# T2 sequence (P07260 1-213): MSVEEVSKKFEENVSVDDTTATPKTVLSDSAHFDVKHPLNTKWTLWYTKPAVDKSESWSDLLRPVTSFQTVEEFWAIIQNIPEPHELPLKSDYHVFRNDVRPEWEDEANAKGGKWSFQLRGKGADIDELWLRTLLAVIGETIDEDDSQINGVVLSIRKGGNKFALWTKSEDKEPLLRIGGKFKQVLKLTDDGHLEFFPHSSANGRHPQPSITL
# T2 sequence (P12962 1-161 partner): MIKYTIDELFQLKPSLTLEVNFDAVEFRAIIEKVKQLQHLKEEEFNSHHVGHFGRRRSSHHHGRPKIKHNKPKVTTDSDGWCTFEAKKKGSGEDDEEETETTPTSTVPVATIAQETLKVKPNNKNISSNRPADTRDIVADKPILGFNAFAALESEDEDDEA
# T3: His6x-eIF4E (Saccharomyces cerevisiae) (UniProt P07260)
# T3 sequence: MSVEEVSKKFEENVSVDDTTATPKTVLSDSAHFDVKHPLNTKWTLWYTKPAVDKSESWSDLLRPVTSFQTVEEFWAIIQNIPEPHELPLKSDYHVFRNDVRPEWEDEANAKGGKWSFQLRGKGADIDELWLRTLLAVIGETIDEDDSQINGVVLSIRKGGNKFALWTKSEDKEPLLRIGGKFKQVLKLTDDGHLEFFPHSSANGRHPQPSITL
# T4: His6x-eIF4E (Saccharomyces cerevisiae, UniProt P07260 1-213)
# T4 sequence: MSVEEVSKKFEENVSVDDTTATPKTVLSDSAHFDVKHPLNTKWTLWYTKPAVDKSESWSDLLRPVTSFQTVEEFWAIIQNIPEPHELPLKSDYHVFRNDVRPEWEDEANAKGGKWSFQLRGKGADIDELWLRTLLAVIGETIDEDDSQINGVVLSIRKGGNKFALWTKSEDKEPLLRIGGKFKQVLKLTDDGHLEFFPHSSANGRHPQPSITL
# Legend:
# eIF4E (His6x-eIF4E) = molecular target: T1, eIF4E (His6x-eIF4E); experiment: microscale thermophoresis, RED-tris-NTA labelled protein; format: binding; details: read-out: Cap-analog / MST
# From the text: microscale thermophoresis, RED-tris-NTA labelled protein on eIF4E (His6x-eIF4E)
# [1] = molecular target: T2, eIF4E/p20 complex (eIF4E/His6x-p20); experiment: as above; format: binding; details: read-out: Cap-analog / MST
# From the text: microscale thermophoresis, RED-tris-NTA labelled protein on eIF4E/p20 complex (eIF4E/His6x-p20)
# [2] = molecular target: T3, His6x-eIF4E (Saccharomyces cerevisiae); experiment: MST; details: 5' m7GpppG cap (Vaccinia Capping System), Buffer A: 10 mM sodium phosphate pH 7.5, 100 mM NaCl, 2.5 mM MgCl2, 1 mM DTT, 0.05% NP40, MST at 25 C (proteins for capped RNA MST RED-tris-NTA labeled in …)
# [3] = molecular target: T3, His6x-eIF4E (Saccharomyces cerevisiae); experiment: EMSA; details: 5' m7GpppG cap (Vaccinia Capping System); Buffer A: 10 mM sodium phosphate pH 7.5, 100 mM NaCl, 2.5 mM MgCl2, 1 mM DTT, 0.05% NP40; MST at 25 C (proteins for capped RNA MST RED-tris-NTA labeled in …)
# His6x-eIF4E = molecular target: T4, His6x-eIF4E; experiment: MST; up to 96 uM protein; Buffer A: 10 mM sodium phosphate pH 7.5, 100 mM NaCl, 2.5 mM MgCl2, 1 mM DTT, 0.05% NP40; MST at 25 C (proteins for capped RNA MST RED-tris-NTA labeled in buffer B: 20 mM HEPES-KOH pH 7.5, 50 mM NaCl, 1 mM DTT); EMSA 1.5% agarose, 1x TBE, temperature not stated; details: protein: recombinant; tags: N-terminal His6x; label: 3' FAM
molecule,measurement,setting,value
C[n+]1cn([C@@H]2O[C@H](COP(=O)(O)OP(=O)(O)OP(=O)(O)OC[C@H]3O[C@@H](n4cnc5c(=O)[nH]c(N)nc54)[C@H](O)[C@@H]3O)[C@@H](O)[C@H]2O)c2nc(N)[nH]c(=O)c21 [m^7GpppG],Kd,eIF4E (His6x-eIF4E),425 nM
same,Kd,[1],420 nM
"GGGAACAAAAGCUGGUAAUCAAGAAUUACAAGAAACAAAAAUUCAAGUAAAUAACAGAUAAUAC [capped SSA1 5'UTR RNA, 64 nt]",Kd,[2],226 nM
same,Kd,"[2]; no peptide, control of the peptide experiment",230 nM
same,Kd,[3],275 nM
"GUAUUACAAGAAACAAAAAUUCAAGUAAAUAACAGAUAAU (ssRNA) [uncapped SSA1 5'UTR RNA, 40 nt]",binding result,His6x-eIF4E,no binding
